This note sets out measurements from patent publication US20220041691A1, “METHODS FOR DIAGNOSING OR TREATING POST-TRAUMATIC STRESS DISORDER, AND COMPOSITIONS THEREFOR” (Centre for Addiction and Mental Health, priority 2018, published 2022).

In test [1] the target is T1, GR (Mus musculus, UniProt P06537).
T1 construct: from tissue; host or cells: mouse brain
T1 sequence (P06537 1-792): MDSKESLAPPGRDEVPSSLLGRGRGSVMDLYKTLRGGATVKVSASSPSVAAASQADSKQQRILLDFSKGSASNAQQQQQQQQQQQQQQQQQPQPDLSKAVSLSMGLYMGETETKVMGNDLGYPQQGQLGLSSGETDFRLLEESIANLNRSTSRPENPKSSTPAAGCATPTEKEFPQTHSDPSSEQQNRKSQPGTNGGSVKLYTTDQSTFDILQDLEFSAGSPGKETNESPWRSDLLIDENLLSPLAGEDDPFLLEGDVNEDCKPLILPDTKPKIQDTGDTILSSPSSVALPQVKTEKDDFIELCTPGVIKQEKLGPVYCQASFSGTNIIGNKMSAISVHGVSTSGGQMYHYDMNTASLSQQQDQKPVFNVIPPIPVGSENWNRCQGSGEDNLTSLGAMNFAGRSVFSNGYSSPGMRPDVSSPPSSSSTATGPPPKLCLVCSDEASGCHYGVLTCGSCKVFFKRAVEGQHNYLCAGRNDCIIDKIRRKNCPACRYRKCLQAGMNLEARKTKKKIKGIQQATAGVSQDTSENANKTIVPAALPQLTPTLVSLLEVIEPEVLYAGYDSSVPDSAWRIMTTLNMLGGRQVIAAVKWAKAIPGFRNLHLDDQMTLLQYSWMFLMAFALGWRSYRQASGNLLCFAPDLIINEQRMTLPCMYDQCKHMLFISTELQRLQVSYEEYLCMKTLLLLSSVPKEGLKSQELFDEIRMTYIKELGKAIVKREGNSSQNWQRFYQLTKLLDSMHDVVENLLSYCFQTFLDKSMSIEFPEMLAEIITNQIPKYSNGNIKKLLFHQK
The test is described as follows: GST pull-down of GR by GST-FKBP51 fragments in mouse brain tissue. Type of test: binding. The text has this: The present inventors identified that if increased GR-FKBP51 complex levels are part of the pathophysiology of PTSD, then disrupting the complex may rescue behaviors related to PTSD. To develop an agent (in this example, a peptide-based agent) capable of blocking the GR-FKBP51 interaction, experiments were first performed to identify the regions of the GR that are important to bind FKBP51 (and vice versa). Initially, GST-fusion proteins were used encoding the amino-terminus (NT) of GR (GRNT) and the carboxyl-terminus (CT) of GR (GRCT) for affinity purification. […] Extending this strategy, GRNT fragments were examined (see FIG. 8, where the 6 tested GRNT fragments, NT-1, NT-2, NT-3, NT-4, NT-5, and NT-6 are shown). […] Similarly, it was determined that the TPR (tetratricopeptide repeat) domains of FKBP51 bind GR (FIG. 2D). In these studies, GST-fusion proteins of 3 different portions of the FKBP51 protein were prepared (FK1, FK2, and TPR, see FIG. 9) and tested. The TPR fragment was identified as containing the relevant interaction region.
GST-fusion proteins encoding truncated GR fragments were amplified by PCR from full-length human cDNA clones. All constructs were sequenced to confirm the absence of PCR-generated errors. […]

The target of test [2] is T2, FKBP51-TPR (Homo sapiens, UniProt Q13451).
T2 construct: made in house; host or cells: bacteria
T2 sequence (Q13451 258-457): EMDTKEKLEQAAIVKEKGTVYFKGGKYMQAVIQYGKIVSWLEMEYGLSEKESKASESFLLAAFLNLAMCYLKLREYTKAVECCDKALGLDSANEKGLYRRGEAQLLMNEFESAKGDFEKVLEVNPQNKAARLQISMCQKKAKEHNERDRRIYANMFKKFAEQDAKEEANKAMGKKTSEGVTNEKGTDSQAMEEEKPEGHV
Kind of test: Surface plasmon resonance, binding of FKBP51 TPR domain to GR and its phosphorylation mutants. The conditions noted are these: Flag-tagged GR immobilized on sensor chip, 25° C. The method, then:
The binding of FKBP51 TPR domain to GR and its phosphorylation mutants was determined by surface plasmon resonance using a Reichert SR7500DC instrument. Experiments were conducted at 25° C. with 2000 RU HEK293 expressed FLAG-tagged GR bound onto a FLAG antibody-coated Dextran 50,000 Da chip. Running buffer (PBS, pH 7.4 with 0.005% Tween 20) was used with a flow rate of 25 μl/min. With association time of 300s and dissociation of 240s, binding signals were determined by injecting various concentrations of the GST-FKBP51_TPR.

Test [3] has as its target T3, GFP-FKBP51 (Homo sapiens, UniProt Q13451).
T3 sequence (Q13451 1-457): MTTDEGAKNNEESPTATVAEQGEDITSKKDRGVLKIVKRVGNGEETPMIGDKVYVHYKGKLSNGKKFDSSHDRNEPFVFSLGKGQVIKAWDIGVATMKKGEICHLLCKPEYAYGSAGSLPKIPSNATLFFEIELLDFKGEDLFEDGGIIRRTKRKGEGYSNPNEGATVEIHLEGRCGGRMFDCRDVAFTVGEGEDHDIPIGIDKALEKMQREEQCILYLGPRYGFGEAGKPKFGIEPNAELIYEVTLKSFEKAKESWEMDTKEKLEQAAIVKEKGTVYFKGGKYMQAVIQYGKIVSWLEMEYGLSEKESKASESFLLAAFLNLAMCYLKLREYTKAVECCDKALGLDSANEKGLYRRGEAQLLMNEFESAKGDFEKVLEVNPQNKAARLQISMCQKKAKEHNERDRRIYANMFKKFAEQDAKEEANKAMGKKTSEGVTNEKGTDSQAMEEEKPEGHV
The test is described as follows: Co-immunoprecipitation of Flag-GR (WT, S211A, S211E) with GFP-FKBP51 in transfected HEK293T cells. Particulars: HEK293T cells transfected with GR variant and GFP-FKBP51, n=3. In kind it is cell-based. The text has this:
Thus, it was investigated whether the increased GR-FKBP51 seen in fear-conditioned mice and PTSD patients was associated with altered GR S211 phosphorylation. […] Similar results were also seen in samples from PTSD patients (FIG. 5C n=12, p<0.05, t-test). To probe further into how S211 phosphorylation and GR-FKBP51 are related, two GR mutants were generated (see SEQ ID NOs: 10 (S211A) and 11 (S211E) of FIG. 10). S211A is a non-phosphorylated GR mutant and S211E is phosphomimetic GR mutant.
HEK293T cells were maintained as a monolayer culture at 37° C. in Dulbecco's Modified Eagle Medium (DMEM) (Invitrogen) supplemented with 10% fetal bovine serum (Gibco). Cells were grown to 90% confluence before being transiently transfected with DNA constructs by X-treme GENE 9 transfection reagent (Roche), following the manufacturer's instructions. About 24-48 hrs after transfection, cells were used for experiments.
Co-immunoprecipitation and Western blot analyses were performed as previously described.^24, 25, 26 For co-immunoprecipitation, 500˜1000 μg solubilized protein was extracted from whole mouse brain and incubated with primary antibody or control IgG (2˜4 μg) for 4 hrs at 4° C., followed by the addition of 25 μl protein A/G plus agarose (Santa Cruz Biotechnology) for 12 hrs. Pellets were washed, boiled for 5 min in SDS sample buffer and subjected to SDS-PAGE. 50˜100 μg of total protein extract was used as control in each experiment. After transfer of proteins into nitrocellulose, membranes were Western blotted with the primary antibodies. The intensity of protein level was quantified by densitometry (software: ImageLab, Bio-Rad).
Mutants of Flag-GR and GST-GR-NT were created with the QuickChange site-directed mutagenesis kit (Stratagene, La Jolla, Calif.). All mutants were confirmed by DNA sequencing.

Setting [4] is: read-out: KD for binding FKBP51 (SPR).

Numbering of substitutions follows the chain as printed. Numbers in names are those of the source. Read-outs that look alike come from different tables or passages of the source. Ends that are not written are not given here.

“GST-TPR3: GST-fusion protein of FKBP51 TPR fragment 3 (GEAQLLMNEFESAKGDFEKVLEVNPQNKAARLQISMCQKKAKEHNERDRR; also: GST fusion protein)”: the “pull-down of GR by GST-FKBP51 fragment, Western blot” value in test [1] was “can “pull-down””.

B1: S211A GR: non-phosphorylated GR mutant, Flag-tagged (protein)
chain: MDSKESLTPGREENPSSVLAQERGDVMDFYKTLRGGATVKVSASSPSLAVASQSDSKQRRLLVDFPKGSVSNAQQPDLSKAVSLSMGLYMGETETKVMGNDLGFPQQGQISLSSGETDLKLLEESIANLNRSTSVPENPKSSASTAVSAAPTEKEFPKTHSDVSSEQQHLKGQTGTNGGNVKLYTTDQSTFDILQDLEFSSGSPGKETNEAPWRSDLLIDENCLLSPLAGEDDSFLLEGNSNEDCKPLILPDTKPKIKDNGDLVLSSPSNVTLPQVKTEKEDFIELCTPGVIKQEKLGTVYCQASFPGANIIGNKMSAISVHGVSTSGGQMYHYDMNTASLSQQQDQKPIFNVIPPIPVGSENWNRCQGSGDDNLTSLGTLNFPGRTVFSNGYSSPSMRPDVSSPPSSSSTATTGPPPKLCLVCSDEASGCHYGVLTCGSCKVFFKRAVEGQHNYLCAGRNDCIIDKIRRKNCPACRYRKCLQAGMNLEARKTKKKIKGIQQATTGVSQETSENPGNKTIVPATLPQLTPTLVSLLEVIEPEVLYAGYDSSVPDSTWRIMTTLNMLGGRQVIAAVKWAKAIPGFRNLHLDDQMTLLQYSWMFLMAFALGWRSYRQSSANLLCFAPDLIINEQRMTLPCMYDQCKHMLYVSSELHRLQVSYEEYLCMKTLLLLSSVPKDGLKSQELFDEIRMTYIKELGKAIVKREGNSSQNWQRFYQLTKLLDSMHEVVENLLNYCFQTFLDKTMSIEFPEMLAEIITNQIPKYSNGNIKKLLFHQK
modifications: Flag tag; Amino Acid Sequence of S211A GR Mutant (non-phosphorylated GR mutant)
notes: non-phosphorylated GR mutant, Flag-tagged
The Kd is the constant that tells how readily two partners part at equilibrium. With B1, the Kd in test [2] (setting [4]) came out at 0.412 µM. For the same molecule, the “GR-FKBP51 complex level (Flag-GR co-immunoprecipitated with GFP-FKBP51) compared to wild-type GR” value was “significantly higher” in test [3] and “higher levels of the GR-FKBP51 complex” in test [3] (listed as S211A-GR).

B2: S211E GR: phosphomimetic GR mutant, Flag-tagged (protein)
chain: B1 chain with A211E
modifications: Flag tag; Amino Acid Sequence of S211E GR Mutant (phosphomimetic GR mutant)
notes: phosphomimetic GR mutant, Flag-tagged
Turning to B2, the Kd was 3.9 µM in test [2] (figure legend values, read-out: KD for binding FKBP51-TPR (SPR)) and 3.9 ± 0.01 µM in test [2] (setting [4]). In addition, the “GR-FKBP51 complex level (Flag-GR co-immunoprecipitated with GFP-FKBP51) compared to wild-type GR” value in test [3] was “no significant difference”.

B3: GST-TPR: GST-fusion protein of FKBP51 tetratricopeptide repeat (TPR) domain (protein)
chain: T2 sequence (Q13451 258-457)
modifications: left off: a dimerising Fc or GST
notes: GST-fusion protein of FKBP51 tetratricopeptide repeat (TPR) domain
Consider B3, for which the “pull-down of GR by GST-FKBP51 fragment, Western blot” value in test [1] is “can “pull-down””.
